In ChEMBL document CHEMBL1240325, “Non-heme dioxygenases: cellular sensors and regulators jelly rolled into one?” (Nat Chem Biol, 2007):

Tests used:
[1] = substrate: O=C(O)CCC(=O)C(=O)O; experiment: (§1) Activity of FIH-1
[2] = substrate: O=C1O[C@H]([C@@H](O)CO)C(O)=C1O; experiment: as §1
[3] = substrate: O=O; experiment: as §1
[4] = substrate: O=C(O)CCC(=O)C(=O)O; experiment: (§2) Activity of collagen prolyl 4 hydroxylase-1
[5] = substrate: O=C1O[C@H]([C@@H](O)CO)C(O)=C1O; experiment: as §2
[6] = substrate: O=O; experiment: as §2
[7] = substrate: O=C(O)CCC(=O)C(=O)O; experiment: (§3) Activity of HIF prolyl hydroxylase-3
[8] = substrate: O=C1O[C@H]([C@@H](O)CO)C(O)=C1O; experiment: as §3
[9] = substrate: O=O; experiment: as §3
[10] = substrate: O=C(O)CCC(=O)C(=O)O; experiment: (§4) Activity of HIF prolyl hydroxylase-2
[11] = substrate: O=C1O[C@H]([C@@H](O)CO)C(O)=C1O; experiment: as §4
[12] = substrate: O=O; experiment: as §4

B1: Hypoxia-inducible factor 1-alpha inhibitor (Homo sapiens), Q9NWT6 (protein)
chain: MAATAAEAVASGSGEPREEAGALGPAWDESQLRSYSFPTRPIPRLSQSDPRAEELIENEEPVVLTDTNLVYPALKWDLEYLQENIGNGDFSVYSASTHKFLYYDEKKMANFQNFKPRSNREEMKFHEFVEKLQDIQQRGGEERLYLQQTLNDTVGRKIVMDFLGFNWNWINKQQGKRGWGQLTSNLLLIGMEGNVTPAHYDEQQNFFAQIKGYKRCILFPPDQFECLYPYPVHHPCDRQSQVDFDNPDYERFPNFQNVVGYETVVGPGDVLYIPMYWWHHIESLLNGGITITVNFWYKGAPTPKRIEYPLKAHQKVAIMRNIEKMLGEALGNPQEVGPLLNTMIKGRYN
[1]
  Km: 25 µM
[2]
  Km: 260 µM
[3]
  Km: 90 µM

B2: Prolyl 4-hydroxylase subunit alpha-1 (Homo sapiens), P13674 (protein)
chain: MIWYILIIGILLPQSLAHPGFFTSIGQMTDLIHTEKDLVTSLKDYIKAEEDKLEQIKKWAEKLDRLTSTATKDPEGFVGHPVNAFKLMKRLNTEWSELENLVLKDMSDGFISNLTIQRQYFPNDEDQVGAAKALLRLQDTYNLDTDTISKGNLPGVKHKSFLTAEDCFELGKVAYTEADYYHTELWMEQALRQLDEGEISTIDKVSVLDYLSYAVYQQGDLDKALLLTKKLLELDPEHQRANGNLKYFEYIMAKEKDVNKSASDDQSDQKTTPKKKGVAVDYLPERQKYEMLCRGEGIKMTPRRQKKLFCRYHDGNRNPKFILAPAKQEDEWDKPRIIRFHDIISDAEIEIVKDLAKPRLRRATISNPITGDLETVHYRISKSAWLSGYENPVVSRINMRIQDLTGLDVSTAEELQVANYGVGGQYEPHFDFARKDEPDAFKELGTGNRIATWLFYMSDVSAGGATVFPEVGASVWPKKGTAVFWYNLFASGEGDYSTRHAACPVLVGNKWVSNKWLHERGQEFRRPCTLSELE
[4]
  Km: 20 µM
[5]
  Km: 300 µM
[6]
  Km: 40 µM

B3: Prolyl hydroxylase EGLN3 (Homo sapiens), Q9H6Z9 (protein)
chain: MPLGHIMRLDLEKIALEYIVPCLHEVGFCYLDNFLGEVVGDCVLERVKQLHCTGALRDGQLAGPRAGVSKRHLRGDQITWIGGNEEGCEAISFLLSLIDRLVLYCGSRLGKYYVKERSKAMVACYPGNGTGYVRHVDNPNGDGRCITCIYYLNKNWDAKLHGGILRIFPEGKSFIADVEPIFDRLLFFWSDRRNPHEVQPSYATRYAMTVWYFDAEERAEAKKKFRNLTRKTESALTED
[7]
  Km: 55 µM
[8]
  Km: 140 µM
[9]
  Km: 230 µM

B4: Egl nine homolog 1 (Homo sapiens), Q9GZT9 (protein)
chain: MANDSGGPGGPSPSERDRQYCELCGKMENLLRCSRCRSSFYCCKEHQRQDWKKHKLVCQGSEGALGHGVGPHQHSGPAPPAAVPPPRAGAREPRKAAARRDNASGDAAKGKVKAKPPADPAAAASPCRAAAGGQGSAVAAEAEPGKEEPPARSSLFQEKANLYPPSNTPGDALSPGGGLRPNGQTKPLPALKLALEYIVPCMNKHGICVVDDFLGKETGQQIGDEVRALHDTGKFTDGQLVSQKSDSSKDIRGDKITWIEGKEPGCETIGLLMSSMDDLIRHCNGKLGSYKINGRTKAMVACYPGNGTGYVRHVDNPNGDGRCVTCIYYLNKDWDAKVSGGILRIFPEGKAQFADIEPKFDRLLFFWSDRRNPHEVQPAYATRYAITVWYFDADERARAKVKYLTGEKGVRVELNKPSDSVGKDVF
[10]
  Km: 2 µM
[11]
  Km: 180 µM
[12]
  Km: 100 µM
